Measured values: PMC2757638

Biological target: recombinant Cse4 (S. cerevisiae) (UniProt P36012)
Assay: SEC

stoichiometry N: 2
Substance: recombinant Cse4 (from UniProt P36012 1-229) (natural protein; other documents disagree on this pair)
